One block for each molecule: values may come before it.
Tests used:
[1] = target: Trypanosoma brucei cytidine deaminase (recombinant His tag fusion protein) (Trypanosoma brucei brucei (427 strain)); test: SEC; gel filtration of purified recombinant TbCDA on Superdex 200, 50 mM phosphate buffer (pH 7.4) plus 150 mM NaCl, calibrated with molecular weight markers; 500 ul injected
[2] = substrate: Nc1ccn([C@H]2C[C@H](O)[C@@H](CO)O2)c(=O)n1; test: purified protein; assay type: biochemical, Trypanosoma brucei; settings: 50 mM Tris-HCl pH 7.5, 1 mM DTT, 0.125 μM enzyme
[3] = substrate: Nc1ccn([C@@H]2O[C@H](CO)[C@@H](O)[C@H]2O)c(=O)n1; test: purified protein; assay type: biochemical, Trypanosoma brucei; settings: 50 mM Tris-HCl pH 7.5, 1 mM DTT, 0.125 μM enzyme
[4] = substrate: Cc1cn([C@H]2C[C@H](O)[C@@H](CO)O2)c(=O)nc1N; test: purified protein; assay type: biochemical, Trypanosoma brucei; settings: 50 mM Tris-HCl pH 7.5, 1 mM DTT, 0.125 μM enzyme

stoichiometry N [1]: 4
Molecule: Trypanosoma brucei cytidine deaminase (recombinant His tag fusion protein) (enzyme)

B1: TbCDA (Trypanosoma brucei brucei TREU927) (protein)
chain: MQCSSLKTGCLKLLSQLPEGLQQAGRTAVSAHQRSYCPYSNFAVGAALLHDDGKVTSGCNYETCVYKGTCAEACAIVKANMDGYRTAQAVAIYGRSVLPTAAAAAADATVPPCGFCRQLLAEVADLSGNMNDFLVVLVTFDQEHARLFRLSELLPQPFGPSSIGMDVAALATGEHSRCPGTF
Km [2]: 52.3 ± 4.5 µM
Vmax [2]: 34.9 µmol/min/mg
kcat [2]: 12.4 ± 0.293 s⁻¹
kcat/Km [2]: 238000 M⁻¹ s⁻¹
Km [3]: 199.5 ± 9.0 µM
Vmax [3]: 126 µmol/min/mg
kcat [3]: 44.8 ± 1.2 s⁻¹
kcat/Km [3]: 225000 M⁻¹ s⁻¹
Km [4]: 24.5 ± 3.3 µM
Vmax [4]: 5.9 µmol/min/mg
kcat [4]: 2.09 ± 0.08 s⁻¹
kcat/Km [4]: 85000 M⁻¹ s⁻¹
